The values that follow come from US6821947.

The target in the assay is human recombinant endorepellin tagged with His6, from 293-EBNA cells (human) (UniProt P98160). Description: cell-based or functional assay.
Sequence of UniProt P98160 (P98160 3687-4391 limits assumed): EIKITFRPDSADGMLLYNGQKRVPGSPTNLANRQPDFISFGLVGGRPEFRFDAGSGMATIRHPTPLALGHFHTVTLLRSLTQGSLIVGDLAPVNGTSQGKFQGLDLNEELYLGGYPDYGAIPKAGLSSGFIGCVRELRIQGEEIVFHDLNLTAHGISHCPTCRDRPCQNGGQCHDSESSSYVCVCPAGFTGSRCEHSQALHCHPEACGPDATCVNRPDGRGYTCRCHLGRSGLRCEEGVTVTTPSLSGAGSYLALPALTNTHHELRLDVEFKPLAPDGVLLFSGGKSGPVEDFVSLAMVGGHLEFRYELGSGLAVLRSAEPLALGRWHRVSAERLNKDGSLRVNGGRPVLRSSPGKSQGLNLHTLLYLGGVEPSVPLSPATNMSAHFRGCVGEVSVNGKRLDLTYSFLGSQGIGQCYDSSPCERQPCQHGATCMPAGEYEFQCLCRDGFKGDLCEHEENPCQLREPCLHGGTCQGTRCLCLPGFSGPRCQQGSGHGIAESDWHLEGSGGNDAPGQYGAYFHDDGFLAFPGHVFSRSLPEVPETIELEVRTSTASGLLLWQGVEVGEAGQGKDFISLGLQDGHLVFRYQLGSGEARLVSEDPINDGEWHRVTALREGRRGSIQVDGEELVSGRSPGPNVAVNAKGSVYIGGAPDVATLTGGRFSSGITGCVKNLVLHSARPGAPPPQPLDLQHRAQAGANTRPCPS

With “recombinant endostatin purified from Pichia pastoris yeast cells (Calbiochem-Novabiochem)”, the VEGF-induced HUVEC migration through fibrillar collagen (molar ratio of endostatin/endorepellin) was 1.
